Assay [1] has as its target T1, human IL-23R (human, UniProt Q5VWK5 24-629).
T1 sequence: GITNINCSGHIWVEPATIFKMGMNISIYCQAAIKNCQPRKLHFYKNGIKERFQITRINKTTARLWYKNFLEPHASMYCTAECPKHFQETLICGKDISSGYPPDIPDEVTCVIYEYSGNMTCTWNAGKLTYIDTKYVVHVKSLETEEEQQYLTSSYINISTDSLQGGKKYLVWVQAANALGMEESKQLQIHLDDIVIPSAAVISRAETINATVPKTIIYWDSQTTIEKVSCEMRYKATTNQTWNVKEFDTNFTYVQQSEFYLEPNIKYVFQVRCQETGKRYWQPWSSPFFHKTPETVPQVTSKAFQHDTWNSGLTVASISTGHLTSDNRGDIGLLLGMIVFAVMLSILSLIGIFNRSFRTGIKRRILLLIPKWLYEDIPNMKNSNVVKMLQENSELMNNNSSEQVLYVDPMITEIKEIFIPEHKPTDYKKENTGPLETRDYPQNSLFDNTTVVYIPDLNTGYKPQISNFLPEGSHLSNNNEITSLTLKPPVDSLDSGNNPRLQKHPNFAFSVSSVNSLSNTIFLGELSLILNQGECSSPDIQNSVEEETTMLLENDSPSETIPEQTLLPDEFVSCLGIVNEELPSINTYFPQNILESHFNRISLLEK
Put plainly: cell-based or functional assay.

In assay [2] the target is T2, monkey IL-23R-mouse Fc fusion protein (monkey; mouse).
T2 construct: extracellular domain; also called monkey IL-23R-Fc fusion protein
Put plainly: antigen ELISA, monkey IL-23R-Fc immobilized, HRP anti-human IgG, chemiluminescence. How it is done:
(§1) The present inventors used an antigen ELISA to measure the antigen-specific binding activities of the fully human antibodies constructed in Example 6. A human or monkey IL-23R-Fc fusion protein was immobilized onto a Maxisorp 384-well plate (Nunc, Inc.) at a concentration of 500 ng/mL. A blocking agent (Blocking One; Nacalai Tesque, Inc.) was added thereto and allowed to stand at room temperature for 1 hour, followed by washing twice with a wash buffer [TPBS: 0.05% Tween-20-containing phosphate buffered saline (PBS)], and each of the purified antibody samples was suitably serially diluted and added thereto. Incubation was performed at room temperature for 1 hour, followed by washing four times with TPBS, and HRP-labeled anti-human IgG antibody (DAKO) which was 2000-fold diluted with dilution buffer was added as secondary antibody. Incubation was performed at room temperature for 1 hour, followed by washing four times with a washing buffer. A BM-chemiluminescence ELISA substrate (POD) (Roche Diagnostics) that is a reagent for detecting chemiluminescence was added thereto and the amount of chemiluminescence was measured with an EnVision counter (Perkin Elmer). Each of the antibodies was tested in duplicate, and the EC 50 was analyzed by curve fitting.
On the technique in general: ELISA stands for enzyme-linked immunosorbent assay.

For assay [3], the target named is T3, human IL-23R-mouse Fc fusion protein (human; mouse, UniProt Q5VWK5 24-353).
T3 construct: Expressed in FreeStyle 293 cells, purified; immobilized on the ELISA plate at 500 ng/mL; also called human IL-23R-Fc fusion protein; not shown: Fc region of mouse immunoglobulin (IgG2a) as encoded by the vector pFUSE-mIgG2A-Fc2 (InvivoGen); limits and any linker r
T3 sequence: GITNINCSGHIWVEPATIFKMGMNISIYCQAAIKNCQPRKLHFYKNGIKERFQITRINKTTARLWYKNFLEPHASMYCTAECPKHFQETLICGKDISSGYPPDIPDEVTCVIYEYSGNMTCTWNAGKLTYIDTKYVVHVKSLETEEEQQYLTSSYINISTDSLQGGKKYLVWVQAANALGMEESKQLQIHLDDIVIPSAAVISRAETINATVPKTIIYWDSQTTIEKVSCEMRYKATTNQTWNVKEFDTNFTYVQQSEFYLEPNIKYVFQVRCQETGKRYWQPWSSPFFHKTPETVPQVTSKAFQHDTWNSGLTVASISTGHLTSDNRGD
In words: antigen ELISA, human IL-23R-Fc immobilized, HRP anti-human IgG, chemiluminescence. How it is done: as §1

The target in assay [4] is T1, human IL-23R. In words: cell-based or functional assay. This is another data set of the same source.
Assay [5] has as its target T2, monkey IL-23R-mouse Fc fusion protein. In words: antigen ELISA, monkey IL-23R-Fc immobilized, HRP anti-mouse Ig, chemiluminescence. How it is done:
(§2) The present inventors used an antigen ELISA to measure the antigen-specific binding activity of the antibody. The human or monkey IL-23R-Fc fusion protein was immobilized onto a Maxisorp 384-well plate (Nunc, Inc.) at a concentration of 500 ng/mL. A blocking agent (Blocking One; Nacalai Tesque, Inc.) was added thereto and allowed to stand at room temperature for 1 hour, followed by washing twice with a wash buffer [TPBS: a phosphate buffered saline (PBS) containing 0.05% Tween-20], and the purified antibody samples were suitably serially diluted and added thereto. Incubation was performed at room temperature for 1 hour, followed by washing four times with TPBS, and HRP-rabbit anti-mouse Ig antibody (DAKO) which was 2000-fold diluted with a dilution buffer was added. Incubation was performed at room temperature for 1 hour, followed by washing four times with a wash buffer. A BM-chemiluminescence ELISA substrate (POD) (Roche Diagnostics), which is a reagent for detecting chemical luminescence, was added, and the amount of chemiluminescence was measured with an EnVision counter (Perkin Elmer). Each antibody was tested in duplicate and the EC50 was analyzed by curve fitting. In this test, a fusion antibody obtained by replacing the Fc region of the known humanized anti-human IL-23R antibody hum20D7 (patent document 1) with the mouse Fc region (hereinafter referred to as hum20D7-mFc) was used as a comparative antibody. Also, the reason why the hum20D7 was fused with the mouse Fc region to prepare a fusion protein was to use anti-mouse Ig antibody as secondary antibody, and the mouse Fc region could be recognized by the anti-mouse Ig antibody, thereby rendering it possible to measure activity.

Assay [6] deals with T3, human IL-23R-mouse Fc fusion protein. In words: antigen ELISA, human IL-23R-Fc immobilized, HRP anti-mouse Ig, chemiluminescence. On the procedure: as §2

B1: fully human antibody 25-3 (antibody, human IgG1, kappa, V domains shown)
VH: QVQLQESGPGQVKPSQTLSLTCSVSGGSIDSGDHYWTWIRQHPGEVLEWIGYIYSSGHTYYSPSLKSRLTMSLDTSKNQFSLRLSSVTAADTAVYYCARVGDYEWFDTWGQGTLVTVSS
VL: DIVMTQSPDSLAVSLGERATINCKSSQTILYPSNNMNYLGWYQQRAGQSPRLLIYWASTRESGVPDRFSGSGSGTDFTLTISSLQAEDVAVYYCQQYYSSLPTFGQGTKVEIKR
notes: Human Ig gamma1 / human kappa constant regions; also called 25-3 (fully human); fully human 25-3 antibody
In the case of B1, in the assay with human IL-23R [1], the “IC50, inhibition of human IL-23-inducible Kit-225 cell proliferation” value (“IC50, inhibition” below) turned out to be 3.5 ng/mL. Also, the figures for the EC50 in assay [2] and in assay [3] were 0.0112 µg/mL and 0.0195 µg/mL, respectively. For the same molecule, the “IC50, IL-23-stimulated STAT3 phosphorylation in CD4 lymphocytes of human whole blood” value (“IC50 … of human whole blood” below) in the assay with human IL-23R [4] was 0.7 ng/mL.

B2: 25-3 (chimeric) (antibody, V domains shown)
VH: QVQLQESGPGQVKPSQTLSLTCSVSGGSIDSGDHYWTWIRQHPGEVLEWIGYIYSSGHTYYSPSLKSRLTMSLDTSKNQFSLRLSSVTAADTAVYYCARVGDYEWFDTWGQGTLVTVSS
VL: DIVMTQSPDSLAVSLGERATINCKSSQTILYPSNNMNYLGWYQQRAGQSPRLLIYWASTRESGVPDRFSGSGSGTDFTLTISSLQAEDVAVYYCQQYYSSLPTFGQGTKVEIKR
Turning to B2, the EC50 (as a rule, the concentration needed to bring the measured effect to its halfway point) in assay [5] is 0.028 µg/mL; in assay [6] it was 0.021 µg/mL.

B3: fully human antibody 30-15 (antibody, human IgG1, kappa, V domains shown)
VH: QVQLVQSGAEVKKPGASMKVSCKVSGYTLNELSIHWVRQAPGKGLEWMGGFDPEHGETVYAQNFQDRVTLTEDTSTDTSYMGLNNLRSDDTAVYYCAAESYGDYEFWGQGTLVTVSS
VL: DIQMTQSPSSVSASVGDRVTITCRASQGINNWLAWYQQKPGKAPKVLIYTASSLQSGVPSRFSGSGSGTDFTLTISSLQPEDFATYYCQQANSHPWTFGQGTKVEIKR
notes: Human Ig gamma1 / human kappa constant regions; also called 30-15 (fully human); fully human 30-15 antibody
Consider B3, for which the “IC50, inhibition” value in the assay with human IL-23R [1] was 1.4 ng/mL. For the same molecule, the values for the EC50 in assay [2] and in assay [3] were 0.0076 µg/mL and 0.0118 µg/mL, respectively. Further, in the assay with human IL-23R [4], the “IC50 … of human whole blood” value amounted to 13 ng/mL.

B4: 30-15 (chimeric) (antibody, V domains shown)
VH: QVQLVQSGAEVKKPGASMKVSCKVSGYTLNELSIHWVRQAPGKGLEWMGGFDPEHGETVYAQNFQDRVTLTEDTSTDTSYMGLNNLRSDDTAVYYCAAESYGDYEFWGQGTLVTVSS
VL: DIQMTQSPSSVSASVGDRVTITCRASQGINNWLAWYQQKPGKAPKVLIYTASSLQSGVPSRFSGSGSGTDFTLTISSLQPEDFATYYCQQANSHPWTFGQGTKVEIKR
Take B4: the concentration giving a half-maximal response (EC50) in assay [5] turned out to be 0.016 µg/mL; in assay [6], 0.017 µg/mL.

B5: 30-16 (chimeric) (antibody, V domains shown)
VH: QVQVVQSGAEVKKPGASVKVSCKVSGYTLIELAIHWVRQVPGKGLEWMGGFDPEHGETIYAQKFQGRVTMTEDTSTDTAYMELNNLRSEDTAVYYCAILEAGDLDCWGQGTLVTVSS
VL: DIQMTQSPSSVSASVGDRVTITCRASQGISNWLAWYQQKPGKAPKVLIYTASSLQSGVPSRFSGSGSGTDFTLTVSGLQPEDFGTYYCQQANSFPFTFGPGTKVDIKR
For B5, the EC50 in assay [5] was 0.069 µg/mL; in assay [6], 0.019 µg/mL.

B6: fully human antibody 30-16 (antibody, human IgG1, kappa, V domains shown)
VH: QVQVVQSGAEVKKPGASVKVSCKVSGYTLIELAIHWVRQVPGKGLEWMGGFDPEHGETIYAQKFQGRVTMTEDTSTDTAYMELNNLRSEDTAVYYCAILEAGDLDCWGQGTLVTVSS
VL: DIQMTQSPSSVSASVGDRVTITCRASQGISNWLAWYQQKPGKAPKVLIYTASSLQSGVPSRFSGSGSGTDFTLTVSGLQPEDFGTYYCQQANSFPFTFGPGTKVDIKR
notes: Human Ig gamma1 / human kappa constant regions; also called 30-16 (fully human); fully human 30-16 antibody
Take B6: the “IC50, inhibition” value in the assay with human IL-23R [1] is 2.3 ng/mL. Also, the results for the 50% effective concentration (EC50) in assay [2] and in assay [3] were 0.0108 µg/mL and 0.0165 µg/mL, respectively. For the same molecule, the “IC50 … of human whole blood” value with human IL-23R [4] worked out at 4.5 ng/mL.

B7: fully human antibody 30-18 (antibody, human IgG1, kappa, V domains shown)
VH: QVQLVQSGAEVKKPGASVKVSCKVSGYTLNELSIHWVRQAPGKGLEWMGGFDPEHSETLYAQNFQDRLTLTEDTSTETACMELNSLRSDDTAVYYCAAESYGDYEFWGQGTLVTVSS
VL: DIQMTQSPSSVSASVGDRVTITCRASQDISSWLAWYQQKPGKAPKVLIYTASSLQSGVPSRFSGSGSGTDFTLTISSLQPEDFATYYCQQANSHPWTFGQGTKVEIKR
notes: Human Ig gamma1 / human kappa constant regions; also called 30-18 (fully human); fully human 30-18 antibody
With B7, the “IC50, inhibition” value with human IL-23R [1] came out at 3.3 ng/mL. The EC50 was 0.0084 µg/mL in assay [2] and 0.0136 µg/mL in assay [3].

B8: fully human antibody 32-28 (antibody, human IgG1, kappa, V domains shown)
VH: QVHLVQSGTEVRKPGASVKVSCKVSGYTLNELAIHWVRQAPGKGLEWMGGFDPEHGEIIYAQRFQGRVTLPEDTSTDTAYLDLFNLRSEDTAVYFCATEAAPFDYWGQGTLVIVSS
VL: DIQMTQSPSTLSASVGDRVTITCRASQSLSSWLAWYQQKPGKAPKLLIYKASSLESGVPSRFSGSGSGTDFTLTISSLQPDDFATYYCQQYDIYPRTFGQGTKVEIKR
notes: Human Ig gamma1 / human kappa constant regions; also called 32-28 (fully human); fully human 32-28 antibody
As for B8, the “IC50, inhibition” value with human IL-23R [1] is 1.4 ng/mL. In addition, the values for the EC50 in assay [2] and in assay [3] were 0.0171 µg/mL and 0.0131 µg/mL, respectively. The “IC50 … of human whole blood” value with human IL-23R [4] is 0.16 ng/mL.

B9: fully human antibody 34-58 (antibody, human IgG1, kappa, V domains shown)
VH: QVHLVQSGTEVRKPGASVKVSCKVSGYTLNELAIHWVRQAPGKGLEWMGGFDPEHGEIIYAQRFQGRITLPEDTSTDTAYMDLVNLRSEDTAVYFCTTEAAPFDYWGQGSLVIVSS
VL: DIQMTQSPSTLSASVGDRVTITCRASQSLSNWLAWYQQKPGKAPKLLIYKASSLESGVPSRFSGSGSGTDFTLTISGLQPDDFATYYCQQYDIYPRTFGQGTKVEIKR
notes: Human Ig gamma1 / human kappa constant regions; also called 34-58 (fully human); fully human 34-58 antibody
Consider B9, for which the “IC50, inhibition” value with human IL-23R [1] came to 3.7 ng/mL. The values for the EC50 in assay [2] and in assay [3] were 0.0148 µg/mL and 0.0146 µg/mL, respectively. In addition, the “IC50 … of human whole blood” value with human IL-23R [4] came to 0.51 ng/mL.

B10: fully human antibody 32-36 (antibody, human IgG1, kappa, V domains shown)
VH: QVQMVQSGAEVKRPGASVKVSCKVSGYTLNELGIHWVRQAPGKGLEWMGGFDPEHGKIIYAQRFQGRLTMPEDTSTDTAYMELSSLTSEDTAVYYCATVAAPLDYWGQGTLVTVSS
VL: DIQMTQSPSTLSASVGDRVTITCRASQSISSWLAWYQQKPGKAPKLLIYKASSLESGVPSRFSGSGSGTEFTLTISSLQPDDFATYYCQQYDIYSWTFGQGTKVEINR
notes: Human Ig gamma1 / human kappa constant regions; also called 32-36 (fully human); fully human 32-36 antibody
With B10, the “IC50, inhibition” value in the assay with human IL-23R [1] came to 6.7 ng/mL. For the same molecule, the EC50 in assay [2] came out at 0.0331 µg/mL; in assay [3] it was 0.0218 µg/mL. Besides, in the assay with human IL-23R [4], the “IC50 … of human whole blood” value amounted to 8.2 ng/mL.

The record behind these values is US20140275490A1 (Astellas, published 2014).
